T1: Human CD73 ECD (human, UniProt P21589 27-549)
T1 sequence: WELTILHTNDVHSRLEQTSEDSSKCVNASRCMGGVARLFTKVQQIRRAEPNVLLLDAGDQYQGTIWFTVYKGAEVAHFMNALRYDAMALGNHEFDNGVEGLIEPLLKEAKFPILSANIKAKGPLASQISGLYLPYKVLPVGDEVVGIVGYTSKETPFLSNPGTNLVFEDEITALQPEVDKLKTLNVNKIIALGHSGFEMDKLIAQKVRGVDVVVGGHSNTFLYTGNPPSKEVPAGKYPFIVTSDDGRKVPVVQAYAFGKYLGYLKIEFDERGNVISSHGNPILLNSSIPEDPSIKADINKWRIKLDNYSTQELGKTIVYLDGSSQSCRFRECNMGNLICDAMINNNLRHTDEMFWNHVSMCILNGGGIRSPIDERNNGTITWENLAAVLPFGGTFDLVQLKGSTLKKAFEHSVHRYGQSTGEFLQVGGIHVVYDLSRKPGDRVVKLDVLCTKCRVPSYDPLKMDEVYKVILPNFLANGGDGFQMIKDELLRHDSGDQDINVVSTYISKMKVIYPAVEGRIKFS

T2: Human CD73 on cells (MDA-MB-231, Jurkat CD73 knock-in, NCI-H322) (human, UniProt P21589 27-549)
T2 sequence: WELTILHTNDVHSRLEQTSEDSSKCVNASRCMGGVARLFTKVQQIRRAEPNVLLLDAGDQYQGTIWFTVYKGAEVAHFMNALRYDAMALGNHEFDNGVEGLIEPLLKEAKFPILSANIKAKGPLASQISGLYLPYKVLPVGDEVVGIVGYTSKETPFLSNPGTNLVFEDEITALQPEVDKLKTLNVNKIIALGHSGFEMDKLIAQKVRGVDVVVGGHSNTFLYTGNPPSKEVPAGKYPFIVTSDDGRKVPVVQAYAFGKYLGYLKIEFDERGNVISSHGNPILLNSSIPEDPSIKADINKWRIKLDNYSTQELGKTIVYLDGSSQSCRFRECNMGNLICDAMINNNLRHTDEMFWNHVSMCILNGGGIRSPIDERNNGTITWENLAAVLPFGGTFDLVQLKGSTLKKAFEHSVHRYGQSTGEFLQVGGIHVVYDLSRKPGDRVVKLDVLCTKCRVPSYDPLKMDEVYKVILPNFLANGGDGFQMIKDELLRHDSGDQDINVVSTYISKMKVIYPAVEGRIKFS

B1: CD730068 (antibody, V domains shown)
VH: EVQLLESGGGLVQPGGSLRLSCAASGFTFSNYIMGWVRQAPGKGLEWVSSISSSGGATIYADSVKGRFTISRDNSKNTLYLQMNSLRAEDMAVYYCAKDHLGGHGMDVWGQGTTVTVSS
VL: DIQMTQSPSSLSASVGDRVTITCRASQDISNYLAWFQQKPGKAPKSLIFAASSLESGVPSKFSGSGSGTDFTLTISSLQPEDSATYYCQQYNSYPLTFGGGTKVEIK
B2: CD730069 (antibody, V domains shown)
VH: EVQLLESGGGLVQPGGSLRLSCAASGFTFSEYQMGWVRQAPGKGLEWVSYIRSSGGQTIYADSVKGRFTISRDNSKNTLYLQMNSLRAEDTAVYYCARRTYSSGWHIDYWGQGTLVTVSS
VL: DIQMTQSPDSLSASVGDRVTITCRASQSISRYLNWYQQKPGKAPKLLIYGASSLQSGVPSRFSGSGSGTDFSLTISSLQLEDFATYYCQQSYRTPLTFGGGTKVEIQ
B3: Phen0203 hIgG1 (antibody, V domains shown)
VH: EVQLVQSGGGVVQPGRSLRLSCAASGFRFSDFAMHWVRQAPGKGLEWVAGISYDGGNKYYADSVKGRFTISRDNSNNTLYLQMNSLRAEDTAVYYCAKDHGYSGYYGHLDYWGRGTLVTVSS
VL: not shown

Key:
Experiment in all cases: cell-based or functional assay
Human CD73 ECD = target: T1, Human CD73 ECD
[1] = target: T2, Human CD73 on cells (MDA-MB-231, Jurkat …)
[2] = target: T2, Human CD73 on cells (MDA-MB-231, Jurkat …); remark: listed apart in the source

Binder | Enzyme Inhibition, rCD73, 1/EC50 (nM) (Human CD73 ECD) [nM⁻¹] | Enzyme Inhibition, MDA-MB-231, 1/EC50 (nM) [1] [nM⁻¹] | Internalization, MDA-MB-231, 1/EC50 (nM) [1] [nM⁻¹] | FabZAP internalization, EC50, MDA-MB-231 [2] [nM] | FabZAP internalization, maximum toxicity, MDA-MB-231 [2] [%]
B1 | 0 | 0 | 0 |  | 
B2 | 0.038 | 0.0013 | 0.038 |  | 
B3 |  |  |  | 0.0925 | 91
